Tests used:
[1] = system: monocytes from human whole blood; assay: Formation of superoxide radical anions; type: cell-based; parameters: Superoxide activity: unit not given here; details: for Superoxide activity: test substance 50 pg/ml, 3 h incubation; for formation of superoxide radical anions (comparison in words): compared with the other substances tested
Description: Determination of the formation of superoxide radical anions in monocytes from human whole blood was carried out as follows:
Isolation of peripheral mononuclear cells is carried out by density gradient centrifugation from heparinized whole blood. The blood is diluted 1:2 with PBS (without Ca/Mg) and layered onto 15 ml of Histopaque-1077. After this, the cell suspension is centrifuged for 30 min at 700×g and 20° C. The interphase with the mononuclear cells is carefully removed with a Pasteur pipette, made up with 30 ml of PBS (without Ca/Mg), and centrifuged for 5 min at 350×g. The supernatant is decanted, and the cells are taken up in RPMI 1640 medium and counted in the flow cytometer. The cells are adjusted to 10^5 monocytes/ml. For the test batch, 1 ml of cell suspension is pipetted into each 5 ml tube. LPS 100 ng/ml is used as a control. The test substance (GcMAF, GcMAF-calciol or GcMAF-calcitriol) is used in a concentration of 50 pg/ml. The cells are incubated for a total of 3 h in the CO2 incubator. 15 min before the end of incubation, 5 μl each of CD45-V450 antibody and 1 μl of a 1 mM MitoSOX stock solution are added. After this, the cell suspension is made up with 2 ml each of RPMI medium and centrifuged for 5 min at 350×g at room temperature. The supernatant is decanted, and the cells are resuspended in 500 μl of RPMI medium. The cells are measured and analyzed in the flow cytometer. Evaluation is carried out based on the average fluorescence intensity, as described by Saharuddin Bin Mohamad, Hideko Nagasa Wa, Yoshihiro Uto, and Hitoshi Hori in “Preparation of Gc Protein-Derived Macrophage Activating Factor (GcMAF) and its Structural Characterization and Biological Activities”, Anticancer Research 22: 4297-4300 (2002).
Superoxide formation assay
The method used was a modified version of that described by Johnston et al. In brief, after three-hour treatment of the samples, the plates were washed twice with PBS (-) and once with Krebs-Ringer phosphate buffer, pH 7.4, 1.5 ml of 50 μM cytochrome C in Krebs-Ringer phosphate buffer was added, and phorbol myristate acetate (PMA) was added to a final concentration of 5 μg/ml in each well and cultured for 90 minutes in a moistened incubator.
The reaction was stopped using an ice bath. The cultured medium was placed in an Eppendorf tube and centrifuged at 8000 g. The optical density of the supernatant was spectrometrically determined at 550 nm with reference at 540 nm (U-2000, Hitachi) using mixtures of plates without cells as a blank measurement. The concentration of reduced cytochrome C was determined using the equation E550nm=[…].

[2] = system: receptor sites of the ELISA test; assay: Binding to the receptor sites of the ELISA test for vitamin D; details: ELISA test selective for calcidiol
From the text: The standard test for vitamin D in the blood, the ELISA test, is selective for calcidiol (which has an OH group at position 25). […] The same applies for the complex GcMAF-calcitriol.

Peritoneal mouse cells = assay: Phagocytosis activation (phagocytosis index, opsonized sheep red blood cells); type: cell-based; details: for phagocytic activity (comparison in words): compared with GcMAF-calcitriol or GcMAF alone; for Macrophage activity: phagocytosis index, three hours of drug treatment, opsonized SRBC cultured for 90 minutes, 250 macrophages counted
Description: Phagocytosis activation was determined as described by Hammarstrom S and Kabat EA in “Studies on specificity and binding properties of the blood group A reactive hemagglutinin from Helix pomatia”, Biochemistry 10: 1684-1692, 1971.
Peritoneal mouse cells were coated in a 24-well plate onto cover glasses. After three hours of drug treatment, the cultures were tested for phagocytic activity. Sheep red blood cells (SRBC) were opsonized using hemolytic rabbit serum (anti-sheep red blood C12HSB cells, Serotec Ltd. England). Opsonized SRBC (0.5%) in RPMI 1640 (serum-free) were layered onto each macrophage-coated cover glass and cultured for 90 minutes. The non-internalized erythrocytes were lyzed by immersing the cover glass in a hypotonic solution (⅕ PBS). The macrophages were fixed with methanol, air-dried, and Giemsa stained. The number of phagocytosed erythrocytes per cell was microscopically determined; 250 macrophages were counted for each data point. The data are expressed as a phagocytosis index, which is defined as the percentage of macrophages with engulfed erythrocytes multiplied by the average number of erythrocytes per macrophage.

[3] = Vitamin D content in the blood after oral administration; type: in vivo
From the text: (§1) The complex according to the invention can be orally administered. […] Moreover, the complex according to the invention is not toxic.

Toxicity = assay: Toxicity
From the text: as §1

monocytic cells = assay: Monocytic cells after oral administration; type: in vivo

Molecule | Superoxide activity [1] | binding to the receptor sites of the ELISA test [2] | phagocytic activity (comparison in words) (Peritoneal mouse cells) | Macrophage activity (Peritoneal mouse cells) | formation of superoxide radical anions (comparison in words) [1] | formation of superoxide radical anions (comparison in words) ([1]; listed as complex according to the invention) | vitamin D content in the blood ([3]; 12 h after oral administration, 35.9 nM before administration) | absorption in oral administration ([3]; oral administration) | toxicity (Toxicity) | monocytic cells, subsequently converted into macrophages (monocytic cells)
GcMAF-calcitriol: comparative complex; same production method carried out with calcitriol instead of cholecalciferol (protein, UniProt P02774 17-474, looked up, deglycosylated (GcMAF); complexed with calcitriol, comparative complex; same production method carried out with calcitriol instead of cholecalciferol) Vitamin D-binding protein: LERGRDYEKNKVCKEFSHLGKEDFTSLSLVLYSRKFPSGTFEQVSQLVKEVVSLTEACCAEGADPDCYDTRTSALSAKSCESNSPFPVHPGTAECCTKEGLERKLCMAALKHQPQEFPTYVEPTNDEICEAFRKDPKEYANQFMWEYSTNYGQAPLSLLVSYTKSYLSMVGSCCTSASPTVCFLKERLQLKHLSLLTTLSNRVCSQYAAYGEKKSRLSNLIKLAQKVPTADLEDVLPLAEDITNILSKCCESASEDCMAKELPEHTVKLCDNLSTKNSKFEDCCQEKTAMDVFVCTYFMPAAQLPELPDVELPTNKDVCDPGNTKVMDKYTFELSRRTHLPEVFLSKVLEPTLKSLGECCDVEDSTTCFNAKGPLLKKELSSFIDKGQELCADYSENTFTEYKKKLAERLKAKLPDATPTELAKLVNKHSDFASNCCSINSPPLYCDSEIDAELKNIL | 188 | does not bind | virtually identical to the phagocytic activity of GcMAF alone | 73.2 |  |  |  |  |  | 
Gc-calcidiol: complex of vitamin D-binding protein (Gc) and calcidiol (protein, UniProt P02774 17-474, looked up, complexed with calcidiol) Vitamin D-binding protein: LERGRDYEKNKVCKEFSHLGKEDFTSLSLVLYSRKFPSGTFEQVSQLVKEVVSLTEACCAEGADPDCYDTRTSALSAKSCESNSPFPVHPGTAECCTKEGLERKLCMAALKHQPQEFPTYVEPTNDEICEAFRKDPKEYANQFMWEYSTNYGQAPLSLLVSYTKSYLSMVGSCCTSASPTVCFLKERLQLKHLSLLTTLSNRVCSQYAAYGEKKSRLSNLIKLAQKVPTADLEDVLPLAEDITNILSKCCESASEDCMAKELPEHTVKLCDNLSTKNSKFEDCCQEKTAMDVFVCTYFMPAAQLPELPDVELPTNKDVCDPGNTKVMDKYTFELSRRTHLPEVFLSKVLEPTLKSLGECCDVEDSTTCFNAKGPLLKKELSSFIDKGQELCADYSENTFTEYKKKLAERLKAKLPDATPTELAKLVNKHSDFASNCCSINSPPLYCDSEIDAELKNIL |  | does not bind |  |  |  |  |  |  |  | 
GcMAF, produced as described: selectively deglycosylated vitamin D-binding protein, self-produced, with final filtration via a 100,000 Da filter (protein, UniProt P02774 17-474, looked up, selectively deglycosylated (GcMAF)) Vitamin D-binding protein: LERGRDYEKNKVCKEFSHLGKEDFTSLSLVLYSRKFPSGTFEQVSQLVKEVVSLTEACCAEGADPDCYDTRTSALSAKSCESNSPFPVHPGTAECCTKEGLERKLCMAALKHQPQEFPTYVEPTNDEICEAFRKDPKEYANQFMWEYSTNYGQAPLSLLVSYTKSYLSMVGSCCTSASPTVCFLKERLQLKHLSLLTTLSNRVCSQYAAYGEKKSRLSNLIKLAQKVPTADLEDVLPLAEDITNILSKCCESASEDCMAKELPEHTVKLCDNLSTKNSKFEDCCQEKTAMDVFVCTYFMPAAQLPELPDVELPTNKDVCDPGNTKVMDKYTFELSRRTHLPEVFLSKVLEPTLKSLGECCDVEDSTTCFNAKGPLLKKELSSFIDKGQELCADYSENTFTEYKKKLAERLKAKLPDATPTELAKLVNKHSDFASNCCSINSPPLYCDSEIDAELKNIL | 199 |  |  | 73.0 |  |  |  |  |  | 
GcMAF, purchased from Metavectrum, Germany: GcMAF purchased from Metavectrum, Germany (protein, UniProt P02774 17-474, looked up, selectively deglycosylated (GcMAF)) Vitamin D-binding protein: LERGRDYEKNKVCKEFSHLGKEDFTSLSLVLYSRKFPSGTFEQVSQLVKEVVSLTEACCAEGADPDCYDTRTSALSAKSCESNSPFPVHPGTAECCTKEGLERKLCMAALKHQPQEFPTYVEPTNDEICEAFRKDPKEYANQFMWEYSTNYGQAPLSLLVSYTKSYLSMVGSCCTSASPTVCFLKERLQLKHLSLLTTLSNRVCSQYAAYGEKKSRLSNLIKLAQKVPTADLEDVLPLAEDITNILSKCCESASEDCMAKELPEHTVKLCDNLSTKNSKFEDCCQEKTAMDVFVCTYFMPAAQLPELPDVELPTNKDVCDPGNTKVMDKYTFELSRRTHLPEVFLSKVLEPTLKSLGECCDVEDSTTCFNAKGPLLKKELSSFIDKGQELCADYSENTFTEYKKKLAERLKAKLPDATPTELAKLVNKHSDFASNCCSINSPPLYCDSEIDAELKNIL | 150 |  |  | 68 |  |  |  |  |  | 
GcMAF-calciol: dimeric complex of a selectively deglycosylated vitamin D-binding protein (GcMAF) and cholecalciferol (calciol) (protein, UniProt P02774 17-474, looked up, deglycosylated (GcMAF); complexed with cholecalciferol) Vitamin D-binding protein: LERGRDYEKNKVCKEFSHLGKEDFTSLSLVLYSRKFPSGTFEQVSQLVKEVVSLTEACCAEGADPDCYDTRTSALSAKSCESNSPFPVHPGTAECCTKEGLERKLCMAALKHQPQEFPTYVEPTNDEICEAFRKDPKEYANQFMWEYSTNYGQAPLSLLVSYTKSYLSMVGSCCTSASPTVCFLKERLQLKHLSLLTTLSNRVCSQYAAYGEKKSRLSNLIKLAQKVPTADLEDVLPLAEDITNILSKCCESASEDCMAKELPEHTVKLCDNLSTKNSKFEDCCQEKTAMDVFVCTYFMPAAQLPELPDVELPTNKDVCDPGNTKVMDKYTFELSRRTHLPEVFLSKVLEPTLKSLGECCDVEDSTTCFNAKGPLLKKELSSFIDKGQELCADYSENTFTEYKKKLAERLKAKLPDATPTELAKLVNKHSDFASNCCSINSPPLYCDSEIDAELKNIL | 142 | does indeed bind | significantly higher | 83.5 | lower | lowest of all of the substances tested | 44.25 nM | absorbed by the body in oral administration | not toxic | significant increase
